Laboratory results reported in paper PMC7958859, “Molecular and Pharmacological Characterization of the Interaction between Human Geranylgeranyltransferase Type I and Ras-Related Protein Rap1B” (International Journal of Molecular Sciences, 2021).

Target: human GGTase-I (LgBiT-GGTase-I-β-subunit with co-transfected untagged FTase α-subunit) (human, UniProt P53609-1 2-377; P49354-1 1-379)
Test: split reporter (BiFC, NanoBiT); living HEK293 cells stably expressing the human A2BAR, transient co-transfection (50 ng DNA/well of each LgBiT and SmBiT plasmid, 100 ng/well untagged FTase α, ΔCQLL 50–200 ng/well); NanoGlo live-cell substrate 24 h after transfection, luminescence at 25 °C every 30 s, maxima plotted as RLU; also after treatment with vehicle (DMSO), adenosine, NECA, BAY60-6583, CGS-21680, forskolin, …
Conditions: partners not purified

fold lower luminescence than with Rap1B WT (50 ng DNA/well each): ~20 fold
fold lower luminescence than with Rap1B WT (ΔCQLL 200 ng DNA/well, WT 50 ng DNA/well): ~10 fold
B1: SmBiT-Rap1B ΔCQLL (domain or fragment)
chain: REYKLVVLGSGGVGKSALTVQFVQGIFVEKYDPTIEDSYRKQVEVDAQQCMLEILDTAGTEQFTAMRDLYMKNGQGFALVYSITAQSTFNDLQDLREQILRVKDTDDVPMILVGNKCDLEDERVVGKEQGQNLARQWNNCAFLESSAKSKINVNEIFYDLVRQINRKTPVPGKARKKSS
notes: human Rap1B lacking the C-terminal CAAX motif CQLL (from C181 to the end); the forward primer begins at codon 2, the reverse primer ends with Lys-Lys-Ser-Ser and a stop codon; Expression about 5-fold lower than SmBiT-Rap1B WT by Western blot; Glycine/serine linker and Ala-Ile-Ala between SmBiT and Rap1B; also called complete CAAX motif deletion mutant; source: HEK293 stably expressing the human …
